Test results as given in US20060177432A1.

Experiments:
Test in all cases: cell-based or functional assay
[1] = target: human α-thrombin (human) (UniProt P00734)
[2] = target: neuropsin
[3] = target: chymotrypsin

With “6xHis-PEBP (recombinant mouse PEBP with a 6xHis-tag at the N-terminus) (from UniProt P70296 2-187)” the inhibition of amidolytic activity (chromogenic substrate, 405 nm) [1] was 55%, the inhibition of amidolytic activity (chromogenic substrate, 405 nm) [2] was 70% and the inhibition of amidolytic activity (chromogenic substrate, 405 nm) [3] was 25%.
